T1: BMP9 as used in biolayer interferometry (human) (UniProt Q9UK05)
T1 sequence (Q9UK05 320-429, looked up): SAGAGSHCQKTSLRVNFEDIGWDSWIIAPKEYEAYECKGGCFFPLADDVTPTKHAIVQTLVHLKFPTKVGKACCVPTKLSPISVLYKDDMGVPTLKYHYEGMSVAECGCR

B1: His-ECTO (His-tagged ENG ectodomain) of the purified His-ECTO-BMP9 complex (receptor, human, UniProt P17813 26-586, looked up)
chain: ETVHCDLQPVGPERGEVTYTTSQVSKGCVAQAPNAILEVHVLFLEFPTGPSQLELTLQASKQNGTWPREVLLVLSVNSSVFLHLQALGIPLHLAYNSSLVTFQEPPGVNTTELPSFPKTQILEWAAERGPITSAAELNDPQSILLRLGQAQGSLSFCMLEASQDMGRTLEWRPRTPALVRGCHLEGVAGHKEAHILRVLPGHSAGPRTVTVKVELSCAPGDLDAVLILQGPPYVSWLIDANHNMQIWTTGEYSFKIFPEKNIRGFKLPDTPQGLLGEARMLNASIVASFVELPLASIVSLHASSCGGRLQTSPAPIQTTPPKDTCSPELLMSLIQTKCADDAMTLVLKKELVAHLKCTITGLTFWDPSCEAEDRGDKFVLRSAYSSCGMQVSASMISNEAVVNILSSSSPQRKKVHCLNMDSLSFQLGLYLSPHFLQASNTIEPGQQSFVQVRVSPSVSEFLLQLDSCHLDLGPEGGTVELIQGRAAKGNCVSLLSPSPEGDPRFSFLLHFYTVPIPKTGTLSCTVALRPKTGSQDQEVHRTVFMRLNIISPDLSGCTSKG

How the values were obtained:
[1] = molecular target: the molecule itself; assay: non-reducing SDS-PAGE and immunoblot
[2] = molecular target: T1, BMP9 as used in biolayer interferometry (human); assay: BLI
SEC-MALS = molecular target: the molecule itself; assay: SEC-MALS
[3] = molecular target: B1; assay: SEC-MALS

Kd [2] [nM] | koff [2] [s⁻¹] | kon [2] [M⁻¹ s⁻¹] | Binder | stoichiometry N [1] | also measured
 |  |  | ^MZP (mMBP-fused ENG P338-G581, zona pellucida module) (domain or fragment, human, UniProt P17813 338-581, looked up) PAPIQTTPPKDTCSPELLMSLIQTKCADDAMTLVLKKELVAHLKCTITGLTFWDPSCEAEDRGDKFVLRSAYSSCGMQVSASMISNEAVVNILSSSSPQRKKVHCLNMDSLSFQLGLYLSPHFLQASNTIEPGQQSFVQVRVSPSVSEFLLQLDSCHLDLGPEGGTVELIQGRAAKGNCVSLLSPSPEGDPRFSFLLHFYTVPIPKTGTLSCTVALRPKTGSQDQEVHRTVFMRLNIISPDLSG | 2 | 
295 | 0.0871 | 295000 | unfused (non-mMBP fused) wild-type OR, ENG E26-S337 (domain or fragment) ETVHCDLQPVGPERGEVTYTTSQVSKGCVAQAPNAILEVHVLFLEFPTGPSQLELTLQASKQNGTWPREVLLVLSVNSSVFLHLQALGIPLHLAYNSSLVTFQEPPGVNTTELPSFPKTQILEWAAERGPITSAAELNDPQSILLRLGQAQGSLSFCMLEASQDMGRTLEWRPRTPALVRGCHLEGVAGHKEAHILRVLPGHSAGPRTVTVKVELSCAPGDLDAVLILQGPPYVSWLIDANHNMQIWTTGEYSFKIFPEKNIRGFKLPDTPQGLLGEARMLNASIVASFVELPLASIVSLHASSCGGRLQTS |  | 
179 | 0.0622 | 349000 | ^MOR as used in biolayer interferometry (domain or fragment) ETVHCDLQPVGPERGEVTYTTSQVSKGCVAQAPNAILEVHVLFLEFPTGPSQLELTLQASKQNGTWPREVLLVLSVNSSVFLHLQALGIPLHLAYNSSLVTFQEPPGVNTTELPSFPKTQILEWAAERGPITSAAELNDPQSILLRLGQAQGSLSFCMLEASQDMGRTLEWRPRTPALVRGCHLEGVAGHKEAHILRVLPGHSAGPRTVTVKVELSCAPGDLDAVLILQGPPYVSWLIDANHNMQIWTTGEYSFKIFPEKNIRGFKLPDTPQGLLGEARMLNASIVASFVELPLASIVSLHASSCGGRLQTS |  | 
9.81 | 0.00198 | 200000 | full-length ectodomain of ENG (ECTO) as used in biolayer interferometry (receptor) ETVHCDLQPVGPERGEVTYTTSQVSKGCVAQAPNAILEVHVLFLEFPTGPSQLELTLQASKQNGTWPREVLLVLSVNSSVFLHLQALGIPLHLAYNSSLVTFQEPPGVNTTELPSFPKTQILEWAAERGPITSAAELNDPQSILLRLGQAQGSLSFCMLEASQDMGRTLEWRPRTPALVRGCHLEGVAGHKEAHILRVLPGHSAGPRTVTVKVELSCAPGDLDAVLILQGPPYVSWLIDANHNMQIWTTGEYSFKIFPEKNIRGFKLPDTPQGLLGEARMLNASIVASFVELPLASIVSLHASSCGGRLQTSPAPIQTTPPKDTCSPELLMSLIQTKCADDAMTLVLKKELVAHLKCTITGLTFWDPSCEAEDRGDKFVLRSAYSSCGMQVSASMISNEAVVNILSSSSPQRKKVHCLNMDSLSFQLGLYLSPHFLQASNTIEPGQQSFVQVRVSPSVSEFLLQLDSCHLDLGPEGGTVELIQGRAAKGNCVSLLSPSPEGDPRFSFLLHFYTVPIPKTGTLSCTVALRPKTGSQDQEVHRTVFMRLNIISPDLSGCTSKG |  | 
 |  |  | ECTO-Myc (Myc-tagged ENG ectodomain) (receptor, human, UniProt P17813 26-586, looked up) ETVHCDLQPVGPERGEVTYTTSQVSKGCVAQAPNAILEVHVLFLEFPTGPSQLELTLQASKQNGTWPREVLLVLSVNSSVFLHLQALGIPLHLAYNSSLVTFQEPPGVNTTELPSFPKTQILEWAAERGPITSAAELNDPQSILLRLGQAQGSLSFCMLEASQDMGRTLEWRPRTPALVRGCHLEGVAGHKEAHILRVLPGHSAGPRTVTVKVELSCAPGDLDAVLILQGPPYVSWLIDANHNMQIWTTGEYSFKIFPEKNIRGFKLPDTPQGLLGEARMLNASIVASFVELPLASIVSLHASSCGGRLQTSPAPIQTTPPKDTCSPELLMSLIQTKCADDAMTLVLKKELVAHLKCTITGLTFWDPSCEAEDRGDKFVLRSAYSSCGMQVSASMISNEAVVNILSSSSPQRKKVHCLNMDSLSFQLGLYLSPHFLQASNTIEPGQQSFVQVRVSPSVSEFLLQLDSCHLDLGPEGGTVELIQGRAAKGNCVSLLSPSPEGDPRFSFLLHFYTVPIPKTGTLSCTVALRPKTGSQDQEVHRTVFMRLNIISPDLSGCTSKG | 2 | 
 |  |  | His-^MECTO (His-tagged, mMBP-fused ENG ectodomain) (receptor, human, UniProt P17813 26-586, looked up) ETVHCDLQPVGPERGEVTYTTSQVSKGCVAQAPNAILEVHVLFLEFPTGPSQLELTLQASKQNGTWPREVLLVLSVNSSVFLHLQALGIPLHLAYNSSLVTFQEPPGVNTTELPSFPKTQILEWAAERGPITSAAELNDPQSILLRLGQAQGSLSFCMLEASQDMGRTLEWRPRTPALVRGCHLEGVAGHKEAHILRVLPGHSAGPRTVTVKVELSCAPGDLDAVLILQGPPYVSWLIDANHNMQIWTTGEYSFKIFPEKNIRGFKLPDTPQGLLGEARMLNASIVASFVELPLASIVSLHASSCGGRLQTSPAPIQTTPPKDTCSPELLMSLIQTKCADDAMTLVLKKELVAHLKCTITGLTFWDPSCEAEDRGDKFVLRSAYSSCGMQVSASMISNEAVVNILSSSSPQRKKVHCLNMDSLSFQLGLYLSPHFLQASNTIEPGQQSFVQVRVSPSVSEFLLQLDSCHLDLGPEGGTVELIQGRAAKGNCVSLLSPSPEGDPRFSFLLHFYTVPIPKTGTLSCTVALRPKTGSQDQEVHRTVFMRLNIISPDLSGCTSKG | 2 | 
 |  |  | B1 |  | stoichiometry N (SEC-MALS): 2
 |  |  | bone morphogenetic protein 9 (BMP9), mature homodimer, untagged, expressed in HEK293 cells (ligand, human, UniProt Q9UK05 320-429, looked up) SAGAGSHCQKTSLRVNFEDIGWDSWIIAPKEYEAYECKGGCFFPLADDVTPTKHAIVQTLVHLKFPTKVGKACCVPTKLSPISVLYKDDMGVPTLKYHYEGMSVAECGCR |  | stoichiometry N [3]: 1 2:2 (ENG chains : BMP9 chains)

From PMC5464963 (Cell Reports, 2017)
